According to US11982671B2, “Identification of a T cell epitope of Prevotella copri that induces T cell responses in patients with rheumatoid arthritis” (priority 2016, dated 2024):

Tested on: serum IgG and IgA antibodies
Experiment: ELISA for serum IgG and IgA antibodies to the P. copri protein (Pc-p27)
Type: binding, human
Description: ELISA for serum IgG and IgA antibodies to the P. copri protein (Pc-p27). ELISA plates were coated with 0.25 μg/ml of the P. copri protein Pc-p27 (GenScript USA Inc, Piscataway, N.J.) overnight at 4° C. Subsequent incubations and washes were performed at room temperature. After washing with phosphate buffered saline with 0.05% Tween-20 (PBST), the plates were incubated with blocking buffer (5% nonfat dry milk in PBST) for one hour. Afterwards, 100 μl of each patient's serum sample (diluted 200-fold) was added in duplicate wells for 1.5 hours, followed by horseradish-peroxidase (HRP)-conjugated goat anti-human IgG (sc-2453, Santa Cruz Biotech) or HRP-conjugated goat anti-human IgA (Bio-Rad, Hercules, Calif.) and then TMB substrate (BD, San Diego, Calif.). For inter-plate standardization, 2 control samples were included on each plate.

B1: Pc-p27: full length 27-kD protein of P. copri, recombinant (GenScript) (protein, listed as Prevotella copri)
chain: MKRIILILTVLLAMLGQVAYAQKTCVIASAENHVPIREALIHTNNNHWARTDYRGYWTMRYQFDSATVSKPGFMKATIRYKELPDTLFLLPDAKQLGEVTVWGKNQEGIKNMEEDIQEKINSLPTSSTGIGFDAFGWMDKQGKRDKKHLQQAKKVFEKMEHKDPVVAAYEKATGKKYELTNPYDVSAFKKDPPSEMATEEKKATSDAESKSKKKENPEKYAQE
patients with positive IgG antibody responses (49 CRA patients): 20%
patients with IgG antibody responses >3 SD above HC (78 NORA patients, serum diluted 200-fold): 13%
patients with IgG or IgA antibody responses (127 RA patients): 24%
patients with IgA antibody responses (both the NORA and CRA groups): About 10%
